Data taken from patent publication US20090312277.

Target: p21/WAF1 (UniProt P38936)
Sequence (P38936 whole entry): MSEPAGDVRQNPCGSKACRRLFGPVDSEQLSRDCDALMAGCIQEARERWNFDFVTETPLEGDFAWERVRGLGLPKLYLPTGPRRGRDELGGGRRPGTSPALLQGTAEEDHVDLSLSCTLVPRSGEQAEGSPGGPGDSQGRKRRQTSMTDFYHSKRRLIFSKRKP

Sequence of cathepsin L (chain, as listed by the source): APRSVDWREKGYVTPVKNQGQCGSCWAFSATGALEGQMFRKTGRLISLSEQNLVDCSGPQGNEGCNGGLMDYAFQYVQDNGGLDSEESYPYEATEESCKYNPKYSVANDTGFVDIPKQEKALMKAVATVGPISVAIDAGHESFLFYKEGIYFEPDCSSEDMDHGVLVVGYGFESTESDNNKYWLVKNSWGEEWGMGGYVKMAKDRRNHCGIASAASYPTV

Q: Which cleavage in vitro does the source give for cathepsin L here?
A: Its cleavage in vitro is “p2l/WAF1 is readily cleaved by cathepsin L in vitro”.
